Laboratory results from IntAct's records for PubMed 15504911.

B1: ADP-ribosylation factor 1 (Saccharomyces cerevisiae), P11076 (parent)
chain: MGLFASKLFSNLFGNKEMRILMVGLDGAGKTTVLYKLKLGEVITTIPTIGFNVETVQYKNISFTVWDVGGQDRIRSLWRHYYRNTEGVIFVVDSNDRSRIGEAREVMQRMLNEDELRNAAWLVFANKQDLPEAMSAAEITEKLGLHSIRNRPWFIQATCATSGEGLYEGLEWLSNSLKNST
partner: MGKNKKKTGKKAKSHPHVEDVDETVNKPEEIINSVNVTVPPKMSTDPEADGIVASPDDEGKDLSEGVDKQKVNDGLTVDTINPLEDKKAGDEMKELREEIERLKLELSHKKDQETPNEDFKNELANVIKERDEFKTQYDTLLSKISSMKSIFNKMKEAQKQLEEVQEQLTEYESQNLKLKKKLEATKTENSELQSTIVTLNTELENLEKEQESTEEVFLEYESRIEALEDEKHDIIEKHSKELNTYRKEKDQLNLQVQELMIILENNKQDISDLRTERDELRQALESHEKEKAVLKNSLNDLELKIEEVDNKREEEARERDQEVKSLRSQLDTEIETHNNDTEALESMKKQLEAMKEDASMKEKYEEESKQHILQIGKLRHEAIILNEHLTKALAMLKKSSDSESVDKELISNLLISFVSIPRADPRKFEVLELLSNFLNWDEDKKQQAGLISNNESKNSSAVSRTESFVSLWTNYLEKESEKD
B2: GRIP domain-containing protein RUD3 (Saccharomyces cerevisiae), Q12234 (parent)
chain: B1 partner
partner: B1 chain

Variants of: B1
Conditions: with rud3_yeast RUD3, Q12234

| effect of a mutation on the interaction | Variant |
| --- | --- |
| decreasing interaction | MGLFASKLFSNLFGNKEMRILMVGLDGAGKTNVLYKLKLGEVITTIPTIGFNVETVQYKNISFTVWDVGGQDRIRSLWRHYYRNTEGVIFVVDSNDRSRIGEAREVMQRMLNEDELRNAAWLVFANKQDLPEAMSAAEITEKLGLHSIRNRPWFIQATCATSGEGLYEGLEWLSNSLKNST [T32N] |

Variants of: B2
Conditions: with arf1_yeast ARF1, P11076

| effect of a mutation on the interaction | Variant |
| --- | --- |
| decreasing interaction | MGKNKKKTGKKAKSHPHVEDVDETVNKPEEIINSVNVTVPPKMSTDPEADGIVASPDDEGKDLSEGVDKQKVNDGLTVDTINPLEDKKAGDEMKELREEIERLKLELSHKKDQETPNEDFKNELANVIKERDEFKTQYDTLLSKISSMKSIFNKMKEAQKQLEEVQEQLTEYESQNLKLKKKLEATKTENSELQSTIVTLNTELENLEKEQESTEEVFLEYESRIEALEDEKHDIIEKHSKELNTYRKEKDQLNLQVQELMIILENNKQDISDLRTERDELRQALESHEKEKAVLKNSLNDLELKIEEVDNKREEEARERDQEVKSLRSQLDTEIETHNNDTEALESMKKQLEAMKEDASMKEKYEEESKQHILQIGKLRHEAIILNEHLTKALAMLKKSSDSESVDKEAISNLLISFVSIPRADPRKFEVLELLSNFLNWDEDKKQQAGLISNNESKNSSAVSRTESFVSLWTNYLEKESEKD [L410A] |
